± gives the standard deviation of the averaged measurements.

For 79 sequences, switch fluorescence ratio results are on record in the supplement of paper PMC10126150.

The data set relates to ATP. Description: switch fluorescence ratio, 500 uM ATP over buffer (Cy3 cluster intensity, sum of 5 cycles each) (fold (ratio)); higher = stronger signal-on switching upon ATP binding; sequences stand for … in TCGTCGGCAGCGTCAGATGTGTATAAGAGACAGTTTTTTTTTTTTTTTTTTTTTTTTT…TC. To be noted: aptamer strand: ATP DNA aptamer (quencher-CACCTGGGGGAGTATTGCGGAGGAAGG + anchor), 100 nM annealed; ATP concentration: 500 uM. In short, it runs like this:
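Cy3-labelled switching-strand clusters on a modified Illumina MiSeq flow-cell were annealed to 100 nM quencher-labelled ATP aptamer, imaged in selection buffer, then imaged after 15 min with 500 uM ATP at 22 °C. Five buffer/ATP cycles ran, with NaOH stripping and re-annealing between them. The fluorescence ratio is summed target-cycle over summed buffer-cycle Cy3 intensity per cluster, averaged per switch-domain sequence. Clusters outside 100-1000 RFU were excluded.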
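Also: ATP exposure 15 min at 22 °C before imaging.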

On to TTGAAACTTG, for which the switch fluorescence ratio is 0.952 ± 0.018.

With TTGAAAGGAG, the switch fluorescence ratio is 1 ± 0.026.

TTGAAATGGT: the switch fluorescence ratio was 0.987 ± 0.018.

Consider TTGAAATGTG, for which the switch fluorescence ratio is 1.01 ± 0.017.

For the sequence TTGAACACGG, the switch fluorescence ratio came out at 1.02 ± 0.034.

As for TTGAACGGGG, the switch fluorescence ratio amounted to 0.9933 ± 0.0035.

Turning to TTGAACTACT, the switch fluorescence ratio is 1.03 ± 0.016.

In the case of TTGAACTTTG, the switch fluorescence ratio is 0.978 ± 0.061.

For TTGAAGAAGT, the switch fluorescence ratio amounted to 0.9724 ± 0.0095.

Consider TTGAAGCAGC, for which the switch fluorescence ratio was 1.45 ± 0.2.

On to TTGAAGCGGT, for which the switch fluorescence ratio was found to be 1.09 ± 0.11.

TTGAAGCGTT: the switch fluorescence ratio was determined as 0.996 ± 0.018.

Consider TTGAAGGGGG, for which the switch fluorescence ratio was determined as 0.993 ± 0.035.

For TTGAAGGGTC, the switch fluorescence ratio stood at 0.981 ± 0.057.

In the case of TTGAAGGTCA, the switch fluorescence ratio is 1.02 ± 0.015.

For the sequence TTGAAGGTCT, the switch fluorescence ratio is 1 ± 0.05.

Consider TTGAAGGTTA, for which the switch fluorescence ratio came out at 0.99 ± 0.016.

On to TTGAAGTAGT, for which the switch fluorescence ratio came to 1.03 ± 0.1.

For TTGAAGTCTA, the switch fluorescence ratio was 0.992 ± 0.027.

For TTGAAGTTGT, the switch fluorescence ratio is 1.01 ± 0.039.

Take TTGAATCGCG: the switch fluorescence ratio was 1.0115 ± 0.00023.

As to TTGAATTGGG, the switch fluorescence ratio was found to be 0.999 ± 0.046.

TTGAATTGGT: the switch fluorescence ratio turned out to be 0.995 ± 0.036.

For TTGAATTTAA, the switch fluorescence ratio amounted to 0.981 ± 0.025.

Turning to TTGACACGGG, the switch fluorescence ratio worked out at 1.11 ± 0.025.

In the case of TTGACCCGAC, the switch fluorescence ratio is 1.4 ± 0.39.

For TTGACCCGGT, the switch fluorescence ratio stood at 1.06 ± 0.085.

With TTGACCGACT, the switch fluorescence ratio came to 0.973 ± 0.043.

Consider TTGACGAGCG, for which the switch fluorescence ratio amounted to 1.13 ± 0.051.

On to TTGACGCGTC, for which the switch fluorescence ratio came out at 1.02 ± 0.018.

With TTGACGTTTC, the switch fluorescence ratio was determined as 1.02 ± 0.033.

Take TTGACTAGCT: the switch fluorescence ratio worked out at 1.08 ± 0.09.

For TTGACTGTAG, the switch fluorescence ratio was found to be 0.982 ± 0.013.

For TTGACTTATT, the switch fluorescence ratio came to 1 ± 0.043.

For TTGAGACAGG, the switch fluorescence ratio came to 1.0131 ± 0.00096.

As for TTGAGATCCA, the switch fluorescence ratio stood at 0.9929 ± 0.0085.

Take TTGAGATCCG: the switch fluorescence ratio was found to be 0.986 ± 0.053.

On to TTGAGATGGA, for which the switch fluorescence ratio came out at 1.01 ± 0.0062.

TTGAGATGTT: the switch fluorescence ratio was 1.01 ± 0.025.

As to TTGAGCCTCC, the switch fluorescence ratio is 1.2 ± 0.15.

For TTGAGCGGTC, the switch fluorescence ratio was determined as 1.1 ± 0.022.

Consider TTGAGCTAGT, for which the switch fluorescence ratio amounted to 1 ± 0.032.

As for TTGAGGCACG, the switch fluorescence ratio turned out to be 1.04 ± 0.042.

For TTGAGGGCGG, the switch fluorescence ratio amounted to 1.005 ± 0.0098.

For the sequence TTGAGGGGAG, the switch fluorescence ratio came to 1.01 ± 0.012.

Regarding TTGAGGGGCA, the switch fluorescence ratio was 1.01 ± 0.033.

Turning to TTGAGGGTCG, the switch fluorescence ratio is 0.995 ± 0.035.

Consider TTGAGGTC, for which the switch fluorescence ratio was 1 ± 0.029.

In the case of TTGAGTATGG, the switch fluorescence ratio is 0.976 ± 0.028.

As to TTGAGTCCTT, the switch fluorescence ratio worked out at 1.04 ± 0.022.

As to TTGAGTGTCA, the switch fluorescence ratio stood at 0.9852 ± 0.007.

For the sequence TTGAGTTGCG, the switch fluorescence ratio was found to be 0.986 ± 0.028.

In the case of TTGAGTTGGT, the switch fluorescence ratio was 0.95 ± 0.025.

With TTGAGTTTAC, the switch fluorescence ratio is 1.058 ± 0.0028.

Regarding TTGAGTTTGC, the switch fluorescence ratio stood at 1 ± 0.051.

Consider TTGATACATA, for which the switch fluorescence ratio came out at 1.03 ± 0.017.

On to TTGATAGATG, for which the switch fluorescence ratio worked out at 0.975 ± 0.028.

As for TTGATCGGTT, the switch fluorescence ratio is 1.002 ± 0.00027.

Turning to TTGATGAAAT, the switch fluorescence ratio turned out to be 0.984 ± 0.014.

On to TTGATGAAGT, for which the switch fluorescence ratio amounted to 1.01 ± 0.031.

For TTGATGAATT, the switch fluorescence ratio was found to be 1.01 ± 0.017.

Regarding TTGATGACGT, the switch fluorescence ratio was 0.9932 ± 0.0075.

For TTGATGAGGA, the switch fluorescence ratio amounted to 0.978 ± 0.048.

In the case of TTGATGATAT, the switch fluorescence ratio turned out to be 0.986 ± 0.019.

In the case of TTGATGCAAA, the switch fluorescence ratio came out at 1.01 ± 0.05.

On to TTGATGCCGG, for which the switch fluorescence ratio came out at 1.05 ± 0.049.

Turning to TTGATGGGAG, the switch fluorescence ratio amounted to 1.07 ± 0.12.

Turning to TTGATGGTTG, the switch fluorescence ratio came to 0.964 ± 0.021.

For the sequence TTGATGTGGG, the switch fluorescence ratio amounted to 0.975 ± 0.029.

With TTGATGTGTT, the switch fluorescence ratio was 1 ± 0.028.

As to TTGATTAAAT, the switch fluorescence ratio was 0.9575 ± 0.0089.

As for TTGATTAAGC, the switch fluorescence ratio was 1.03 ± 0.043.

Consider TTGATTAATA, for which the switch fluorescence ratio is 0.962 ± 0.022.

Consider TTGATTACTT, for which the switch fluorescence ratio was 1 ± 0.04.

Consider TTGATTGGCA, for which the switch fluorescence ratio amounted to 0.993 ± 0.025.

On to TTGATTTATT, for which the switch fluorescence ratio came out at 0.994 ± 0.017.

Turning to TTGATTTTGT, the switch fluorescence ratio came to 1.01 ± 0.019.

As to TTGATTTTTA, the switch fluorescence ratio amounted to 0.99 ± 0.044.

Regarding TTGATTTTTT, the switch fluorescence ratio stood at 0.996 ± 0.029.
